In the RNAGym collection of RNA variant scans (doi:10.1073/pnas.2313332121):

B1: TPR t1 (parent)
chain: GACCAAUCUGCCCUCAGAGCUCGAGAACAUCUUCGGAUGCAGAGGAGGCAGGCUUCGGUGGCGCGAUAGCGCCAACGUCCUCAACCUCCAAUGCAUCCCACCACAUGAUGAUGCCUGAAGAGCCUUGGUUUUUUG

Variants of: B1
Experiment: polymerase ribozyme fitness, log enrichment relative to wild type (log ratio); higher = more active; in vitro selection for triplet polymerase activity
Outline: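 Mutant libraries of each subunit of a heterodimeric triplet polymerase ribozyme were built by PCR and transcribed. Each library went through one round of in vitro selection in triplicate: annealing with biotinylated primer, partner subunit and triplets, frozen incubation at −7 °C, gel excision of extended constructs, streptavidin-bead capture and RT-PCR. Input and output libraries were Illumina-sequenced; only genotypes with ≥10 input reads and ≥1 read per output were kept. Fitness is log2(genotype enrichment/wild-type enrichment), using inverse-variance-weighted replicate averages.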

Compared with A46U C101A U130G, G44C G61A C80A is lower in “polymerase ribozyme fitness (log ratio)” value: -2.84 for the first, -4.34 for the second.

Compared with G44U C49U U96C A111G, G44U G45A U54A C72G is higher in “polymerase ribozyme fitness (log ratio)” value: -3.97 for the first, -3.66 for the second.

Compared with G45U A66C, A46U G48A C104U is higher in “polymerase ribozyme fitness (log ratio)” value: -2.87 for the first, -1.94 for the second.

First: G45U G69U A119U
Second: G45A U130A
The “polymerase ribozyme fitness (log ratio)” value of the first is higher: -0.819 for the first, -1.49 for the second.

Going from G45U C64U A121G G135A to G45U G52A C72U G110C C123U, the “polymerase ribozyme fitness (log ratio)” value falls from 0.974 to -6.25.

Compared with G45C C73U, A46C U54A G120U is higher in “polymerase ribozyme fitness (log ratio)” value: -0.881 for the first, -0.501 for the second.

First: G45A G61A
Second: G45A G61U
The “polymerase ribozyme fitness (log ratio)” value of the first is lower: -0.513 for the first, -0.292 for the second.

First: G45C G93U
Second: G44U U112A
The “polymerase ribozyme fitness (log ratio)” value of the first is lower: -3.67 for the first, 0.425 for the second.

G45U G57C G69U G110A U125A and G45A C49G G60U U106C U112A are within 0.2 log units of each other in “polymerase ribozyme fitness (log ratio)” value: -0.972 for the first, -0.821 for the second.

Going from G45C C82U G93A C101U to G45U U59A C101U, the “polymerase ribozyme fitness (log ratio)” value rises from -1.84 to -0.987.

First: A46C G113A G128A
Second: A46C C115A
The “polymerase ribozyme fitness (log ratio)” value of the first is lower: -4.59 for the first, -1.52 for the second.

Compared with G45A C98U, G44U A111U is lower in “polymerase ribozyme fitness (log ratio)” value: -1.75 for the first, -4.9 for the second.

Going from A46U to A46G, the “polymerase ribozyme fitness (log ratio)” value rises from -1.11 to -0.119.

First: A46C
Second: G45C U132C
The “polymerase ribozyme fitness (log ratio)” value of the first is higher: -0.983 for the first, -1.51 for the second.

Compared with A46U G47A A50G G60A, G45C G51A U78A C123G is higher in “polymerase ribozyme fitness (log ratio)” value: -3.56 for the first, -2.51 for the second.

Compared with A46G A108G G117A, A46C C72A U112C C124U is higher in “polymerase ribozyme fitness (log ratio)” value: -4.03 for the first, 1.22 for the second.

Compared with G45U A84G U96G C101G, A46U A74C C88G is higher in “polymerase ribozyme fitness (log ratio)” value: -4.84 for the first, -4.4 for the second.

Going from G45U A68G C79G C99U U112A to A46C U112G G122U G135U, the “polymerase ribozyme fitness (log ratio)” value rises from -7.19 to -2.04.

Going from A46U C124A U131C to G44U U125A U131A, the “polymerase ribozyme fitness (log ratio)” value falls from 1.32 to -2.47.

Going from G45A C53A U109G G110U A121U to G45A C82A, the “polymerase ribozyme fitness (log ratio)” value rises from -3.48 to -1.1.

First: G45U A105C
Second: G45A U78C C86A G120U
The “polymerase ribozyme fitness (log ratio)” value of the first is lower: -4.28 for the first, -2.19 for the second.

First: A46U C73U A90C U133A
Second: G45U G120U
The “polymerase ribozyme fitness (log ratio)” value of the first is lower: -1.35 for the first, -0.652 for the second.

Compared with G44A A90G C104U, G45C U129A is lower in “polymerase ribozyme fitness (log ratio)” value: -0.158 for the first, -2.61 for the second.

Compared with A46G G77C C97U C124G, G44C A46U C86U is lower in “polymerase ribozyme fitness (log ratio)” value: 0.934 for the first, -2.43 for the second.

Going from G45A C99U to G44A C88A, the “polymerase ribozyme fitness (log ratio)” value rises from -4.32 to -1.02.

Compared with G44C U55A C70G U126G, A46C C64A G69C C94A is higher in “polymerase ribozyme fitness (log ratio)” value: -5.73 for the first, -2.85 for the second.

First: G44A G69A C89A C124G
Second: A46U C73U
The “polymerase ribozyme fitness (log ratio)” value of the first is lower: -3.8 for the first, -1.08 for the second.

First: A46U C73G
Second: G44C G71C A84C
The “polymerase ribozyme fitness (log ratio)” value of the first is higher: -2.11 for the first, -2.61 for the second.

Going from A46G G51U to G44A C56A, the “polymerase ribozyme fitness (log ratio)” value rises from -2.98 to -1.33.

First: G44A C56U
Second: G45C G61U C86U U87G G93C
The “polymerase ribozyme fitness (log ratio)” value of the first is higher: -0.878 for the first, -2.62 for the second.

Compared with G44C A95C, A46U G48A G128A is lower in “polymerase ribozyme fitness (log ratio)” value: -2.1 for the first, -4.23 for the second.

Compared with A46C C101G G120A, G44C G60U is higher in “polymerase ribozyme fitness (log ratio)” value: -2 for the first, -0.287 for the second.

First: A46G C86G
Second: G44C C86U U96G U129C
The “polymerase ribozyme fitness (log ratio)” value of the first is higher: -1.96 for the first, -2.63 for the second.

Going from A46G C85G to G45C A119G U131G U132A, the “polymerase ribozyme fitness (log ratio)” value rises from -2.68 to 0.0169.

First: A46G G61C G69U C97A A111U
Second: G45U A50U G52U G58A
The “polymerase ribozyme fitness (log ratio)” value of the first is lower: -5.77 for the first, -4.49 for the second.

First: G45A C62U C115U U116C U126A G128C
Second: A46G C53U
The “polymerase ribozyme fitness (log ratio)” value of the first is lower: -5.86 for the first, -1.01 for the second.

First: A46C C73G U87C
Second: G44U G71U
The “polymerase ribozyme fitness (log ratio)” value of the first is lower: -1.35 for the first, -1.06 for the second.

Going from G45U U96C to G44A U96G U116A, the “polymerase ribozyme fitness (log ratio)” value falls from -1.43 to -5.13.

Going from G44U G63U to G44U A46U A111C, the “polymerase ribozyme fitness (log ratio)” value falls from -2.03 to -3.04.

Compared with A46U G48A C62U, G45A C53G G61A C79U C98U is lower in “polymerase ribozyme fitness (log ratio)” value: -2.23 for the first, -3.8 for the second.

First: A46C G60C A68U
Second: A46C C89U
The “polymerase ribozyme fitness (log ratio)” value of the first is lower: -7.2 for the first, -0.611 for the second.

Going from A46C C89A to G45U A90C A105G U106A U130G U131A, the “polymerase ribozyme fitness (log ratio)” value rises from -5.69 to -2.74.
